The values that follow are results of earlier work, collected in article PMC10674744.

In data set [1] the target is SNUPN NES NES (Homo sapiens) (UniProt O95149).
For data set [2], the target named is Rev NES NES (Human immunodeficiency virus 1) (UniProt P04325).
The target of data set [3] is STRAD NES NES (Homo sapiens) (UniProt Q7RTN6).
Data set [4] addresses PKI NES NES (Homo sapiens) (UniProt P61925).

In the case of CRM1 (from UniProt O14980), the Kd in data set [1] was 12.5 µM; in data set [2], 1.18 µM; in data set [3], 10.3 µM; in data set [4], 0.034 µM.

What is called Kd is a measure of binding affinity in units of concentration.
